Source: the DeepSol protein solubility set

Test: soluble on expression in E. coli; label from the status in PepcDB or PDB records

| Sequence | soluble on expression in E. coli |
| --- | --- |
| SKAAIYHAFSHKEAKDHDVQELGSQRAEAFVRAFLKQSIPHMSQEDCESHLQRKAVILEYFTRLKPRPRPKKKSKGLSAKQRRDMRLFDIKPEQQRYSLFLPLHELWKQYIRDLCNGLKPDTQPQMIQAKLLKADLHGAIISVTKSKCPSYVGVTGILLQETKHVFKIITREDHLKVIPKLNCVFTIEIDDFISYIYGSKFQLRASERSAKKFKAKGSIDL | soluble |
| MAHHHHHHSLIDLHIHSNYSDGQGSVEEIARRAKERGLKAIAIVDHSIELPFGLTEKKARMREIEIENAASLYGIKIYSGIECSINAAGEIVLPDFDFDFIIASVHEFVYGQAYYERVIRCLESHDVDVLGHPFSPLFGFDGRLAEMDEKLLDVVEERGVAVELNSSHKSPQDEFLQLCRDRKIAYSIGSDAHSLSGVGEVGWSVEKAKRYMAGAKLFTPEG | not soluble |
| MKPSQWTLRWVTLCGCGMLAASAAAVELPGTVQPSQLDERFKPRSEPQAKPEAPLVVPKQVAPQGSEQIRFKLREIRIEGNTRYDKAVLESYYQHMLGEQVSLAELVDLANRLTAKYRQDGFLLTQVVVPEQSIEGGKVRLQVIEGYLEHVQIKGTVDGPRVRVEELLAPLTEKRPLDADTLERGLLLVGDLPGVNVQSVLSPGQALGSSNLDVALQQQRYEGFVSLDNRGSHYTDPTTLAFGATEFSRLGFYEQIDVLGAISPFSDATRYIQLRGTLPLGGMFAGDTLQIMGSYSKVNPDIPDSVFPFDSVSKSTEGSISYNHPFIRSRSQNLSGGLALQWKDTETRLRDFASDASNPGRDHVRVFQQRLTYDWVDRWMGINLAEVRNNIGLDMWGATKKDDERRSREVADGRFVYLNGNIGRLQGLGGPWSVYGELQWQYSFDPLLPSERFGVGGSGIGRGFAPGNITGDRGFALKLEPRYGQAVGYSWLRSYQAYAFYDWGKTYNLDVDDDEQQKLGSIGAGVRFNLTDQLSFNPEIARQVIGEPADQRDGKRETRVLFNVVARF | not soluble |
| MGSDKIHHHHHHMNLLSPSDPIVLSTAYLPPIQYFTKLLHPEGVLLETAENFVKQSYRNRCHIAGPEGMQPLTIPVEKSPSPKAPIRDIRISEHGNWRHLHLNALISSYGSAPFFDHYMTEIEPFYRHKYTFLWDFNLDLLSVCLEWLDISPLIMFTFEYVEDCPNDFRYSIRPKQAPEDESFRPRVYYRTFAHKYGFLPNLSIVDLIFHEGPSAIQTLKECIR | not soluble |
| MGSDKIHHHHHHMKFFSLADEAEFKSIIISKNKAVDVIGSKLGGQVVSFSDEWFASAENLIQPTAPIRDPTRFVHSGAWYDGWETRRHNEMEYDWVIIKMGVAAAHIIGGEIDTAFFNGNHAPFVSIEALYDEGEEGNIVEDDSRWVEIVEKFECGPSQRHLFVRGNGLTKERFTHIKLKMYPDGGIARFRLYGRVVPPELKTKDHIIDLAYVCNGAVALKYSDQHFGSVDNLLLPGRGHDMSDGWETKRSRQPGHTDWAVIQLGRESSFIEKIIVDTAHFRGNFPQFITVEGCLKESESSENTGEGTWVELVGKSKTGPDKEHVYEIRKSIRVSHVKLTIIPDGGVKRIRVWGY | soluble |
| MGSDKIHHHHHHMGETVPEKAQGAIRHGGNLGKARLMFRQAPEPWIDLSTGINPHSYPHSPIPASAFARLPEPGAAEELKQLAAAHFGAPSAQHVTLSPGTQMLMPLLAQIAINRGAQSGAVLSPAYAEHARTARMAGLTVTEVENIGDLSAYGYAVVVNPNNPDGRITDREALLALAGTIGRKGGLLVVDEAFIETGGAESLAVATNGEALVVLRSFGKFYGMAGVRLGFAIAHPEIAAELEARLGPWAVSGPALHIATEALADREWQSSMRLRLAEEARRMNELLEKAGLKIAGGTSLFTLVRDERSRALFGHLGRRGILVRIFDERPDDMRFGLPGSEADWQRVEEALRSFDHSSKV | not soluble |
| MSHQSPPIAEVDATDDMHEALFAKRGCCFLMPCLASSQPSTRGGSVWWQRITTVDKLEPDERWWIRGWRRMREWSELVAGPRWKTYIRRFGRSNCCGGGGGRVGNSSGGCGGGAMPNRSSDQGKFRYDQLSYSLNFDDGNQTGHFDDEFPYRDYSMRFAAPSLPVSTKCSIDFDSDIDNK | soluble |
| SLTAAENIQEQLYPAPIKTVEEGSPAARAGVRPGDVLLRVNGQPVTDVLAYRHQLERGVVTLEVARPHEAPRVMTGVAGTAQDHHRLMLPQPPSLDETLTFTVEWEDPGLDFEEVLFDGIKKCANKCDFCYVHQMPRGFRKSLYIMDDDYRLSFLYGSFVTLTNLTEGDINRILDENLSPLYVSVHTANQDLRQDMMKWWKLKVKDPQAVQIREMIERLESIDLYTQIVLVPERNDRENLDETVEYLSSRPNVISAAVVPIGLTAHRTNLPDVRTFTPEEAQDTLRRLNVWRRKFLAERGTRFIFPSDELYLLAGEPLPTEEEYEGFPMLENGVGMIRDFLTEALPPLPAALPEPRKVILGTGLLFADSLARAIEPLRQIEGLDIEVRAIENKTFGKVTTVAGLLTGRCFRHAVQPGEADLLIVPPTTLRYGTELMIDDTSLGELRRELKMDVRAGGATLGELARVVLEGAQSSGHQFGMSAHAVKDSGRDDVAPSASRAQGGAAPEESLEEDVAESGMHGRGQA | soluble |
| MGSDKIHHHHHHMAGAFDAGFWLPVLERLPDFRGDCIDMGFYGQPKRPKVPRPLILAHSMGLAWALAHIPRPWAGVFAVNAFPRFTRSPTFVEGVPPRLIERMLARFDETPAQVTADFLTRCGLDNPDTSAIDAAPLKDELAWLARCDERTALRMLPCPVLALAGTSDPIVPQGMSTASFAPDTLTLVDGAGHLLPLTHPDWVAAQIRLFAARLEA | not soluble |
| MKTLFLQYPACSTCQKAKKWLIENNIEYTNRLIVDDNPTVEELKAWIPLSGLPVKKFFNTSGVVYKELKLSSKLPTMTEEEQIALLATNGKLVKRPLVVTERFVLVGFKPEEWEKL | not soluble |
| MTEPLTETPELSAKYAWFFDLDGTLAEIKPHPDQVVVPDNILQGLQLLATASDGALALISGRSMVELDALAKPYRFPLAGVHGAERRDINGKTHIVHLPDAIARDISVQLHTVIAQYPGAELEAKGMAFALHYRQAPQHEDALMTLAQRITQIWPQMALQQGKCVVEIKPRGTSKGEAIAAFMQEAPFIGRTPVFLGDDLTDESGFAVVNRLGGMSVKIGTGATQASWRLAGVPDVWSWLEMITTALQQKRENNRSDDYESFSRSILEHHHHHH | not soluble |
| MRTLKELERELQPRQHLWYFEYYTGNNVGLFMKMNRVIYSGQSDIQRIDIFENPDLGVVFALDGITMTTEKDEFMYHEMLAHVPMFLHPNPKKVLIIGGGDGGTLREVLKHDSVEKAILCEVDGLVIEAARKYLKQTSCGFDDPRAEIVIANGAEYVRKFKNEFDVIIIDSTDPTAGQGGHLFTEEFYQACYDALKEDGVFSAETEDPFYDIGWFKLAYRRISKVFPITRVYLGFMTTYPSGMWSYTFASKGIDPIKDFDPEKVRKFNKELKYYNEEVHVASFALPNFVKKELGLM | soluble |
| MGSDKIHHHHHHMTRGIYNAAMGMLVDMAKLDRIANDLANVDTAGYKQDREAFRAYLRREVFRQEPNPVESRTKKVPIGPLEYATVLDEVRTDLSQGPVEETDVPYHLAINGEGFFRIEFNGGEYYTRNGEFTVNSEGYIVTNYGGYLLDENGERVRFFDDFTVDEEGYVRDAYGNIVTRIGVYNLENPEKFGNTLFTGENPSPSENFRIMQGYVEKSNVDALKAMVDMISAMRHYELSQRAVTVNDELNGKLINSLASLK | not soluble |
| GTTKISVPVPPPDANFPPSAAPVFYNPEMELNRDINVAATAAFVERLLSKKDILREEIRYVDAFSASGIRGLRIAGEVGIHSTMNDWSHEAFELIKENIKINGLEEKAQATRRNANVLLHEQRFHIVDVDPFGTPSPYLDAAASSAYSMLSVTATDTAPLCGAHLNSGIRKYASVPLNTEYHSEMGLRVLLGACARELAKHEKGMLPLLSHVTRHYVRTYLEVLPGSRKADKTLKSMGFVAHCPRCGFRKPVYGLAVHIEKECPECGGLTKIAGPLWLGPYREPEFCNEVISELEAHPLNTKEKVRKIITFCRDELDIPMFYDQHVICKELGASATGIESLIEALRAGGFEASRTHFTGTSFKTDAPIAEIKKIILALSG | not soluble |
